In US20190085311:
Numbering of substitutions follows the chain as printed. In names and notes the source's numbering stands.

B1: Reference 2: P94R/D160N/D165A/G167E/K190E/K196T from U.S. Pat. No. 9,267,127 (SEQ ID NO: 52) (protein)
chain: MQAKPQIPKDKSKVAGYIEIPDADIKEPVYPGPATREQLNRGVSFAEENESLDDQNISIAGHTFIDRPNYQFTNLKAAKKGSMVYFKVGNETRKYKMTSIRNVKPTAVEVLDEQKGKDKQLTLITCDDYNEETGVWEKRKIFVATEVK
B2: D160S/K196S + N107W + E106G (protein)
chain: QAKPQIPKDKSKVAGYIEIPDADIKEPVYPGPATPEQLNRGVSFAEGWESLDDQNISIAGHTFIDRPNYQFTNLKAAKKGSMVYFKVGNETRKYKMTSIRSVKPTDVGVLDEQKGKDKQLTLITCDDYNEKTGVWESRKIFVATEVK
B3: D160S/K196S + F144L (protein)
chain: B2 chain with G47E, W48N, F85L
B4: D160S/K196S + G167E (protein)
chain: B2 chain with G47E, W48N, G108E
B5: D160S/K196S + E106G (protein)
chain: B2 chain with W48N
B6: D160S/K196S + N107W + F144L (protein)
chain: B2 chain with G47E, F85L
B7: D160S/K196S + N107W + F144L + G167E (protein)
chain: B2 chain with G47E, F85L, G108E
B8: D160S/K196S + F144L + G167E (protein)
chain: B2 chain with G47E, W48N, F85L, G108E
B9: D160S/K196S + N107W + G167E (protein)
chain: B2 chain with G47E, G108E
B10: D160S/K196S + A61E (protein)
chain: B2 chain with A2E, G47E, W48N
B11: D160S/K196S + A61T (protein)
chain: B2 chain with A2T, G47E, W48N
B12: D160S/K196S + N107W (protein)
chain: B2 chain with G47E

Biological target: glucose dehydrogenase containing the LPETG motif

In the case of B1, the “relative apparent “Km” for LPXTG” value is reported as “lower”.

Going from B2 to B3, the “relative apparent “Km” for LPXTG” value falls from 107% to 100%.

First: B4
Second: B5
The “relative apparent “Km” for LPXTG” value of the first is higher: 131% for the first, 121% for the second.

Going from B6 to B7, the “relative apparent “Km” for LPXTG” value rises from 134% to 197%.

B8 and B9 are the same in “relative apparent “Km” for LPXTG” value: 166% for the first, 166% for the second.

Going from B10 to B11, the “relative apparent “Km” for LPXTG” value falls from 100% to 97%.

B12 was tested, and the “relative apparent “Km” for LPXTG” value was 121%.
